The values below come from publication PMC5500810, “Identification and characterization of Nanobodies targeting the EphA4 receptor” (The Journal of Biological Chemistry, 2017).

Numbering of substitutions follows the chain as printed. Like-named read-outs stand apart in the source and are kept apart here.

For assay [1], the target named is T1, EphA4 ligand-binding domain (human, amino acids 22-203) (human, UniProt P54764, biotin on primary amines (EZ link NHS biotin) in the AlphaScreen assays only).
T1 sequence (P54764 22-203): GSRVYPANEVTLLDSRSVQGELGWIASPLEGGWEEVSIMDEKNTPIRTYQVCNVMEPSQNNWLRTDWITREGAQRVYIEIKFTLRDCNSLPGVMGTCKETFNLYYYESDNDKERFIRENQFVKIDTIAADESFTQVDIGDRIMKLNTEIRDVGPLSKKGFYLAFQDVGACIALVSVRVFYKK
The target in assay [2] is T2, human EphA4-Fc (R&D Systems) (Homo sapiens, UniProt P54764).
T2 construct: EphA4, human; the results call it 'full-length recombinant' receptor, the methods an EphA4-hFc fusion protein from R&D Systems; also called hEphA4-Fc; EphA4-hFc; source: bought: R&D Systems
T2 sequence (P54764 20-547): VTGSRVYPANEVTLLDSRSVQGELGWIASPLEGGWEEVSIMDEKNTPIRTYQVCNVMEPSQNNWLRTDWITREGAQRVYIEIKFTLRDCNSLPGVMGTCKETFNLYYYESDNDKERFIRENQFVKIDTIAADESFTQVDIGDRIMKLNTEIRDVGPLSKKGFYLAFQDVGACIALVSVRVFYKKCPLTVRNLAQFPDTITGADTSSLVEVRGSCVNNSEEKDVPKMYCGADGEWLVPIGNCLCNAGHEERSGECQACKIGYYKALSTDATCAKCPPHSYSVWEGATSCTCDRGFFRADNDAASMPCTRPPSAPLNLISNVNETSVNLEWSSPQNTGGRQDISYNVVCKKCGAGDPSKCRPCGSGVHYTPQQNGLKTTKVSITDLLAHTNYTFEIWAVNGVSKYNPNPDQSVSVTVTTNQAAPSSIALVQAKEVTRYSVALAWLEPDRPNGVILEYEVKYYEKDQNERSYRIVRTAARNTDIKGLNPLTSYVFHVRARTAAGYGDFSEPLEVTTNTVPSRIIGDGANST
As to the kind of experiment: co-IP; Nb on anti-HA magnetic Dynabeads used to capture recombinant EphA4; EphA4 detected with N-terminal anti-EphA4 antibody. The conditions noted are these: both partners purified.

Assay [3] deals with T3, mouse EphA4-Fc (R&D Systems) (mouse, UniProt Q03137).
T3 construct: EphA4, mouse; the results call it 'full-length recombinant' receptor, the methods an EphA4-hFc fusion protein from R&D Systems; also called mEphA4-Fc; EphA4-hFc (mouse); source: bought: R&D Systems
T3 sequence (Q03137 20-547): as the sequence (P54764 20-547) above, with P59A, N121S, V124G, R250Q, S251N, T270S, K378R, N406S counted along it
The description is as above. The conditions noted are these: both partners purified.

Assay [4] addresses T4, mouse recombinant EphA6 (Fc-tagged; R&D Systems) (mouse, UniProt Q62413).
T4 construct: EphA6, mouse, recombinant, Fc-tagged; source: bought: R&D Systems
Kind of assay: AlphaScreen or HTRF; biotinylated Nbs (100 nM) with subhooking concentrations (10-100 nM) of mouse Fc-tagged Eph receptors; anti-IgG AlphaLISA acceptor and streptavidin donor beads; 50 mM Hepes, 100 mM NaCl, 0.1% Triton, 0.1% BSA; room temperature. Conditions: both partners purified. In general terms: Bead proximity is the source of the signal in Alpha formats.

The target of assay [5] is T5, mouse recombinant EphA3 (Fc-tagged; R&D Systems) (mouse, UniProt P29319).
T5 construct: EphA3, mouse, recombinant, Fc-tagged; source: bought: R&D Systems
T5 sequence (P29319 21-540): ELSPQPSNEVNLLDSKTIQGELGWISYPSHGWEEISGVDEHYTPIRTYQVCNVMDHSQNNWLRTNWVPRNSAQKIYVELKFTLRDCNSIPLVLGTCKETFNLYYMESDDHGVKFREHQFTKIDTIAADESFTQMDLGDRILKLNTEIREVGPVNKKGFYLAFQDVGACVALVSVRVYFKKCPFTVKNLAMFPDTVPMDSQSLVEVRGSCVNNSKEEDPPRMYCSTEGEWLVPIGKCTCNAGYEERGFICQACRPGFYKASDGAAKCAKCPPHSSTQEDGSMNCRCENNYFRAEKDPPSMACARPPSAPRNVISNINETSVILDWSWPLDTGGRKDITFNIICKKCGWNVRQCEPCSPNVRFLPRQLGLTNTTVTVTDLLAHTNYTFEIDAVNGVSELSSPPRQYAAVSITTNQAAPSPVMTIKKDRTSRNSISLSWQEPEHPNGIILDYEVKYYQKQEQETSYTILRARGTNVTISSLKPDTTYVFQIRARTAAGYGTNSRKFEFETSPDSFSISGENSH
The assay is described as above. Conditions: both partners purified.

For assay [6], the target named is T6, mouse recombinant EphA8 (Fc-tagged; R&D Systems) (mouse, UniProt O09127).
T6 construct: EphA8, mouse, recombinant, Fc-tagged; source: bought: R&D Systems
T6 sequence (O09127 27-541): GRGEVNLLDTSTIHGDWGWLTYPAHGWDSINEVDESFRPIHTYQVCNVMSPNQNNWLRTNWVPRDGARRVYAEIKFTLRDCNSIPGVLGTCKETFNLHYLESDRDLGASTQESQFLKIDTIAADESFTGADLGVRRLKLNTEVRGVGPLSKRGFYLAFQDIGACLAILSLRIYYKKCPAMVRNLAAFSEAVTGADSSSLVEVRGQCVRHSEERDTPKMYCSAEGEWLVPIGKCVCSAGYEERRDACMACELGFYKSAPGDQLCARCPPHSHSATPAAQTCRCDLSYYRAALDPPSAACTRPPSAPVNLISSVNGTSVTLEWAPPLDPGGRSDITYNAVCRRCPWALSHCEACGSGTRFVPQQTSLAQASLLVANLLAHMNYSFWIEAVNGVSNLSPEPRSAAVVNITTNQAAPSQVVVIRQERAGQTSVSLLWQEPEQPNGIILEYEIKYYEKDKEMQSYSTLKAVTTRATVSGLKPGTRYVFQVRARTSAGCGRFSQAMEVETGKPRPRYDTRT
The description is as above. Conditions: both partners purified.

Assay [7] addresses T7, mouse recombinant EphA7 (Fc-tagged; R&D Systems) (mouse, UniProt Q61772).
T7 construct: EphA7, mouse, recombinant, Fc-tagged; source: bought: R&D Systems
The assay is described as above. Conditions: both partners purified.

In assay [8] the target is T1, EphA4 ligand-binding domain (human, …). Kind of assay: SPR; Biacore T200; EphA4 LBD amine-coupled to CM5 chip (300 RU); Nbs (1-300 nM) as analyte, 60 μl/min; 10 mM Hepes, 150 mM NaCl, 3 mM EDTA, 0.01 mM Surfactant P-20, pH 7.35; two-state model. Conditions: both partners purified.
Assay [9] shares this target. Kind of assay: cell-based or functional assay.
Assay [10] concerns the target T8, human EphA7 (recombinant, EphA7/ephrin-A5 competition assay) (Homo sapiens, UniProt Q15375).
T8 construct: EphA7, human; Probably an Fc chimera of the extracellular domain, since anti-IgG acceptor beads were used
As to the kind of experiment: AlphaScreen or HTRF; competition: human EphA7 (3 nM) preincubated 1 h with increasing Nb, then biotinylated His-tagged human ephrin-A5 (30 nM); anti-IgG acceptor and streptavidin donor beads; 50 mM Hepes, 100 mM NaCl, 0.1% Triton, 0.1% BSA. Conditions: both partners purified.

The target in assay [11] is T2, human EphA4-Fc (R&D Systems). As to the kind of experiment: co-IP; 2.5 μg recombinant mouse or human EphA4 protein (or recombinant ephrin-B2 as negative control) on protein G magnetic Dynabeads, 1 μg Nb overnight at 4 °C, PBS washes; Nb detected with anti-HA. Conditions: both partners purified.
Assay [12] deals with T3, mouse EphA4-Fc (R&D Systems). The description is as above. Conditions: both partners purified.
Assay [13] shares this target. Kind of assay: SPR; Biacore T200; EphA4-hFc (human or mouse) captured (~500 RU) on anti-human Fc antibody; Nbs as analyte; 10 mM Hepes, 150 mM NaCl, 3 mM EDTA, 0.01 mM Surfactant P-20, pH 7.35; 1:1 or two-state model. The conditions noted are these: both partners purified. (In general: In SPR one partner is held on a chip, and binding of the other changes the refractive index at the surface.)

Assay [14] deals with T9, ephrin-B2 (Fc-tagged; R&D Systems) (UniProt P52799).
T9 construct: ephrin-B2, recombinant, Fc-tagged (R&D Systems); also called recombinant ephrin-B2; ephrin-B2 ligand; source: bought: R&D Systems
T9 sequence (P52799 28-229): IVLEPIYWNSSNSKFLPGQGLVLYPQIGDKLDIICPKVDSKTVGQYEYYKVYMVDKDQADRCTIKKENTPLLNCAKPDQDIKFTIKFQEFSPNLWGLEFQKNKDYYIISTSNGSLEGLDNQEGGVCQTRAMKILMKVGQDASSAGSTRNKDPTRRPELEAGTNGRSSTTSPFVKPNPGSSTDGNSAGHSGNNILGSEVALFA
Kind of assay: co-IP; 2.5 μg recombinant mouse or human EphA4 protein (or recombinant ephrin-B2 as negative control) on protein G magnetic Dynabeads, 1 μg Nb overnight at 4 °C, PBS washes; Nb detected with anti-HA. The conditions noted are these: both partners purified.

Assay [15] has as its target T2, human EphA4-Fc (R&D Systems). Kind of assay: SPR; Biacore T200; EphA4-hFc (human or mouse) captured (~500 RU) on anti-human Fc antibody; Nbs as analyte; 10 mM Hepes, 150 mM NaCl, 3 mM EDTA, 0.01 mM Surfactant P-20, pH 7.35; 1:1 or two-state model. Conditions: both partners purified.

T8 sequence (Q15375 28-998): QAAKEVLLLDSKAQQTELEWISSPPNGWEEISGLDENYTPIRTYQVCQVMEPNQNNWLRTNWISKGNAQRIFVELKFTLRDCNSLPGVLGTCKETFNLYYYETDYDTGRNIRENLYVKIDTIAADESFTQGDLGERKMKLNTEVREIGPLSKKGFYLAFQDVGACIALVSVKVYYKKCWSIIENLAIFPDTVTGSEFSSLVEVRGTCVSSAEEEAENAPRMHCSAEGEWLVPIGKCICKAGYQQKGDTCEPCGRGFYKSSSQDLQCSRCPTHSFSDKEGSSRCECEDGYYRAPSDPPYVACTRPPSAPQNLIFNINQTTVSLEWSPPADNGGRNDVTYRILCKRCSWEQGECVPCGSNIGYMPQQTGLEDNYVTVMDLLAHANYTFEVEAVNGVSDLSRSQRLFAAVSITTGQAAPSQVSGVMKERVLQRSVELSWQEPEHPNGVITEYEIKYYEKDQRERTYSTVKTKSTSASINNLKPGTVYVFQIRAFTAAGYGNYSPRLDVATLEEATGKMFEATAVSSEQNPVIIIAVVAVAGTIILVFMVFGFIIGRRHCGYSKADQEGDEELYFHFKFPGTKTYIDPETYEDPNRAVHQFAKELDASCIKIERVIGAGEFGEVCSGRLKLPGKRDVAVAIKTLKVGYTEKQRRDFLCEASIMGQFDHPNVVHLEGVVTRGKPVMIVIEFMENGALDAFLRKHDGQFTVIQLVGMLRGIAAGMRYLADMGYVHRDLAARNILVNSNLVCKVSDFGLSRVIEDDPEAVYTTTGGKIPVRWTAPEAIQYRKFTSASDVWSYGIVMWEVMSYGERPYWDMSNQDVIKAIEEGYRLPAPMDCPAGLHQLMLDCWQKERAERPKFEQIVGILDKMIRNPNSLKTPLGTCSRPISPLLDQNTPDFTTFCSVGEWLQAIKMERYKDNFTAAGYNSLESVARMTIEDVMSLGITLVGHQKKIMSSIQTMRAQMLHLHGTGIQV
T7 sequence (Q61772 28-555): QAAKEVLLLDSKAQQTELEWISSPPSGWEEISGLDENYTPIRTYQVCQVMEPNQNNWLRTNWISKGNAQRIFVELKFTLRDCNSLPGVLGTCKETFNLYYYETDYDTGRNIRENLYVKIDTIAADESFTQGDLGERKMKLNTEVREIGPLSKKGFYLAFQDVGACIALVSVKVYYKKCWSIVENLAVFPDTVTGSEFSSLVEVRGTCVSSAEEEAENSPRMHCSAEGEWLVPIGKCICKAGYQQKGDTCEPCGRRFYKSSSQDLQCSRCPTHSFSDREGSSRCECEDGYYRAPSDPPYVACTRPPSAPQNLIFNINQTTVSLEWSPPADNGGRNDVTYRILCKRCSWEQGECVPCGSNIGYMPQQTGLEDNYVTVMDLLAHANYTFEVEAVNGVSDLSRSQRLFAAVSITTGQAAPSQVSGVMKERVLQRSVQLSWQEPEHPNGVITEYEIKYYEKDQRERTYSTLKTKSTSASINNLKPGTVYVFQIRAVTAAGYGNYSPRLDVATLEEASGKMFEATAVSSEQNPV
T4 sequence (Q62413 23-549): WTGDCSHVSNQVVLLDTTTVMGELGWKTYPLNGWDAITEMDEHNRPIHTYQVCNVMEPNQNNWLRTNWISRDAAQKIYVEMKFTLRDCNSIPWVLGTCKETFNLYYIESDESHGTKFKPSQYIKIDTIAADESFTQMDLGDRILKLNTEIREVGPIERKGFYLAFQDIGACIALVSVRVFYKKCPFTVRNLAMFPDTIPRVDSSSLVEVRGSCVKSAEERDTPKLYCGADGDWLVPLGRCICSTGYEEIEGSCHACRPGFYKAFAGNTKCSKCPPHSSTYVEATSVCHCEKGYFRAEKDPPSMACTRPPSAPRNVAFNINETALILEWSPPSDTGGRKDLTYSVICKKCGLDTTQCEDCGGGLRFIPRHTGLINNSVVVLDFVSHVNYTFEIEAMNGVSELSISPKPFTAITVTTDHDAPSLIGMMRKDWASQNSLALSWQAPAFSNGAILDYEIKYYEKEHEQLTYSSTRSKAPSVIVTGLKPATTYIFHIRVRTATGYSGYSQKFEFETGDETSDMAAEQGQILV

B1: Nb 10 (VHH)
VHH: QVQLQESGGGLVQAGGSLRLSCAASGRTFSSYAMGWFRQAPGTKREMIAAVTKAGTTSYANPVKGRFTISRDDAKNMVYLQMNNLKPEDSAVYYCNAISPLWDEYDFWGPGTQVTVSS
On to B1, for which the binding result in [1] was “binds”.

B2: Nb 50 (VHH)
VHH: B1 VHH with S30N, M34E, G35A, T43K, K44E, S58N
notes: Cloned in the phagemid pMECS; Same clonal group as Nb 31, 10 and 53; also called Nanobody 50; source: E. coli WK6, periplasmic extract, purified (His GraviTrap, Sephadex G25)
Take B2: the binding result in assay [2], in assay [3], in assay [4], in [5], in [6] and in assay [7] was “binds” throughout. Further, in [8], the binding result is “binds”.

B3: Nb 53 (VHH)
VHH: B1 VHH with L11V, T28A, K53R, S58N
notes: Cloned in the phagemid pMECS; Same clonal group as Nb 31, 50 and 10; also called Nanobody 53; source: E. coli WK6, periplasmic extract, purified (His GraviTrap, Sephadex G25)
On to B3, for which the binding result in [3] and in assay [10] was “binds” throughout. Also, the “IC50 of inhibition of ephrin-A1-induced EphA4 phosphorylation (PathHunter assay, EphA4-expressing U2OS cells); blocks ephrin-A1 with EphA4” value in [9] is 261 nM.

B4: Nb 31 (VHH)
VHH: B1 VHH with R27F, T28A, F29S, S30D, S31A, M34I, T56A, S58N
notes: Cloned in the phagemid pMECS; Same clonal group as Nb 50, 10 and 53; also called Nanobody 31; source: E. coli WK6, periplasmic extract, purified (His GraviTrap, Sephadex G25)
B4: the binding result in assay [3], in assay [8] and in assay [11] was “binds” in each case.

B5: Nb 19 (VHH)
VHH: QVQLQESGGGLVQPGGSLRLSCAATGRNFNAYSIAWFRQAPGKEREFVASINWSGSNTYYAVAVKGRFTTSRDNAKNTVYLQMNSLKPEDTAVYYCNAFAAGWGPDYWGQGTQVTVSS
notes: Cloned in the phagemid pMECS; Same clonal group as Nb 57; also called Nanobody 19; source: E. coli WK6, periplasmic extract, purified (His GraviTrap, Sephadex G25)
In the case of B5, the binding result in [8] is listed as “binds”.

B6: Nb 39 (VHH)
VHH: QVQLQESGGGLVQPGGSLKLSCAASGFTFSTYAMSWVRQAPGKGLEWVSRINSGGGYTWHADSVKGRFTISRDNARNTVYLQMNNLKPEDTAVYYCTNLNTGWRPEYWGQGTQVTVSS
notes: Cloned in the phagemid pMECS; also called Nanobody 39; source: E. coli WK6, periplasmic extract, purified (His GraviTrap, Sephadex G25)
On to B6, for which the binding result in [3] and in [10] was “binds” each time. In [9], the “IC50 of inhibition of ephrin-A1-induced EphA4 phosphorylation (PathHunter assay, EphA4-expressing U2OS cells); blocks ephrin-A1 with EphA4” value was found to be 170 nM.

B7: Nb 16 (VHH)
VHH: QVQLQESGGGLVQPGGSLRLSCAASGFTFSNYAMSWVRQAPGKGLEWVSGINKGGGSAYYSDSVKGRFTISRDNAENTLYLQMNNLKPEDTAVYYCVIPWGLGSNEYDYWGQGTQVTVSS
Turning to B7, the binding result in assay [1] is “binds”.

B8: Nb 57 (VHH)
VHH: QVQLQESGGGLVQPGGSLRLSCAASGFTFSSYYMYWVRQAPGKGLEWVSTINTGGGSTNYADSVKGRFIISRDNAKNTVYLQMNSLKPEDTAVYYCNAFAAGWGPDYWGQGTQVTVSS
notes: Cloned in the phagemid pMECS; Same clonal group as Nb 19; also called Nanobody 57; source: E. coli WK6, periplasmic extract, purified (His GraviTrap, Sephadex G25)
Consider B8, for which the binding result in assay [2], in assay [5], in assay [7], in [8] and in assay [12] was “binds” throughout.

B9: Nb 34 (VHH)
VHH: QVQLQESGGGLVQAGGSLRLSCAASGFTFSSYAMSWVRQAPGKGLEWVSGINTGGGSTYYADSVKGRFTISRDNAKNTLYLQMNSLKSEDTAVYYCVPRVGVLEGLTSFGSWGQGTQVTVSS
notes: Cloned in the phagemid pMECS; Same clonal group as Nb 47; also called Nanobody 34; source: E. coli WK6, periplasmic extract, purified (His GraviTrap, Sephadex G25)
For the molecule B9, the binding result in assay [8] is “no binding (tested: 1–300 nM)”.

B10: Nb 47 (VHH)
VHH: B9 VHH with A14P
notes: Cloned in the phagemid pMECS; Same clonal group as Nb 34; also called Nanobody 47; source: E. coli WK6, periplasmic extract, purified (His GraviTrap, Sephadex G25)
In the case of B10, the binding result in assay [8] is on record as “no binding (tested: 1–300 nM)”.

B11: Nb 22 (VHH)
VHH: QVQLQESGGGPVRAGESLRLSCTASGRAFSTYTMGWFRQAPGKERELVAVITPGGNTNYADSVKGRFTISRDDAKNTVYLQMNSLKPVDTAVYYCHVVLAVVGTGNEYDVWGQGTQVTVSS
notes: Cloned in the phagemid pMECS; also called Nanobody 22; source: E. coli WK6, periplasmic extract, purified (His GraviTrap, Sephadex G25)
For the molecule B11, the binding result in assay [8] and in assay [11] was “binds” throughout. In addition, the “fold difference in binding affinity between human and mouse EphA4” value in [13] amounted to 2 fold.

B12: Nb 90 (VHH)
VHH: QVQLQESGGGLVQPGGSLRLSCAASGFTFSSHWIYWVRQAPGKQRELVAAITSGGSTNYADSVKGRFTISRDNAKNTVFLQMNSLKPEDTAVYYCNAWGFLLGDIEDYWGQGTQVTVSS
For B12, the binding result in assay [1] is “binds”.

B13: Nb 60 (VHH)
VHH: B12 VHH with S31R, H32Y, S53R, G54N, S56V, R71T, N73D, A74N, F79Y, P87S
notes: Cloned in the phagemid pMECS; Same clonal group as Nb 90; also called Nanobody 60; source: E. coli WK6, periplasmic extract, purified (His GraviTrap, Sephadex G25)
As for B13, the binding result in [8], in assay [14], in [15] and in assay [13] was “binds” in each case.

B14: Nb 28 (VHH)
VHH: QVQLQESGGGLVQAGGSLRLSCAASGFTFSSNWMYWVRQAPGKGLEWVSGINSGGSSTYYSDSVKGRFTISRDNAKNTLYLQMNSLKPEDTAVYYCAKYSGSYYYRRGPGTQVTVSS
For B14, the binding result in [1] was “binds”.

B15: Nb 71 (VHH)
VHH: QVQLQESGGGLVQPGGSLRLSCAASGFTFSSYWMYWVRQTPGKGLEWVSGINSPGSITGYADSVKGRFTISRDNAKNTLYLQMNSLKSDDTAVYYCARDLTYGGNSLRYIERGQGTQVTVSS
For the molecule B15, in [1], the binding result is “binds”.
